Results as given in US20210130428A1 (Novartis, published 2021).
Numbering of substitutions follows the chain as printed.

Key:
[1] = molecular target: human BMP2 (Bone Morphogenetic Protein 2) (human, UniProt P12643 283-396); experiment: cell-based or functional assay
[2] = molecular target: T1, human BMP6 (Bone Morphogenetic Protein 6) (human, UniProt P22004 382-513, limits assumed); experiment: cell-based or functional assay
T1 sequence (looked up): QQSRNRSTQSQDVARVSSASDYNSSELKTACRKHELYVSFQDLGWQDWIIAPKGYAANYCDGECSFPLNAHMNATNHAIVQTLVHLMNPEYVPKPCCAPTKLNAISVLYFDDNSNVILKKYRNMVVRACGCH

[3] = molecular target: T2, human BMP7 (Bone Morphogenetic Protein 7) (human, UniProt P18075 293-431); experiment: cell-based or functional assay
T2 sequence (looked up): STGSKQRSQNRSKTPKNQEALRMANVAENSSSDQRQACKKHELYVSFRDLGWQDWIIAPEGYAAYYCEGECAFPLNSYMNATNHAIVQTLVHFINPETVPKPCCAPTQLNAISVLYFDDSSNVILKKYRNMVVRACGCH

[4] = molecular target: T3, human BMP5 (Bone Morphogenetic Protein 5) (human, UniProt P22003 317-454, limits assumed); experiment: cell-based or functional assay
T3 sequence (looked up): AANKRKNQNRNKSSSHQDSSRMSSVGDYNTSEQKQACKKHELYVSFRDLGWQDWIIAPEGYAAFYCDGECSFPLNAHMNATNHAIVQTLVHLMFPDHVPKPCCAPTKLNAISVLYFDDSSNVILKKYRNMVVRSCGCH

[5] = molecular target: T1, human BMP6 (Bone Morphogenetic Protein …); experiment: method not stated (Table 8, KD(nM) BMP6)
[6] = molecular target: T1, human BMP6 (Bone Morphogenetic Protein …); experiment: cell-based or functional assay; remark: listed apart in the source
[7] = molecular target: T1, human BMP6 (Bone Morphogenetic Protein …); experiment: cell-based or functional assay; remark: listed apart in the source
[8] = molecular target: human BMP7 (Bone Morphogenetic Protein 7) (human) (UniProt P18075); experiment: cell-based or functional assay
[9] = molecular target: T4, Mouse BMP6 (mouse, UniProt P20722); experiment: ELISA binding assay, fluorescence signal intensity (anti-Fab-AP detection); one bar per antigen, antibody concentration not given
T4 construct: Antigen no
T4 sequence (ligand, looked up): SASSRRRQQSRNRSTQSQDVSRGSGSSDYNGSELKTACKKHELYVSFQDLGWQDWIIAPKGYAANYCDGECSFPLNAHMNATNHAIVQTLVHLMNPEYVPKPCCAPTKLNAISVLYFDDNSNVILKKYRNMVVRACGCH

[10] = molecular target: T3, human BMP5 (Bone Morphogenetic Protein …); experiment: ELISA binding assay, fluorescence signal intensity (anti-Fab-AP detection); antibody concentration not given
[11] = molecular target: T5, hBaffR (human, UniProt Q96RJ3); experiment: as above
T5 construct: Unrelated control antigen no
T5 sequence (control antigen, looked up): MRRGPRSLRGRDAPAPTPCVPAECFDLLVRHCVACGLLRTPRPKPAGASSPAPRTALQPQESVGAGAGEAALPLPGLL

[12] = molecular target: T6, BSA (bovine, UniProt P02769); experiment: as above
T6 construct: Unrelated control antigen no

[13] = molecular target: human BMP7 (Bone Morphogenetic Protein 7) (human) (UniProt P18075); experiment: ELISA binding assay

Chain of human BMP2 (Bone Morphogenetic Protein 2) (P12643 283-396 limits assumed): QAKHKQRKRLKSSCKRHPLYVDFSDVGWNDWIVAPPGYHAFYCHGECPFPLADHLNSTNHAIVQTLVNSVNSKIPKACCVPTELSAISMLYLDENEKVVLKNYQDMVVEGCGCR
T6 sequence (P02769 25-607 limits assumed): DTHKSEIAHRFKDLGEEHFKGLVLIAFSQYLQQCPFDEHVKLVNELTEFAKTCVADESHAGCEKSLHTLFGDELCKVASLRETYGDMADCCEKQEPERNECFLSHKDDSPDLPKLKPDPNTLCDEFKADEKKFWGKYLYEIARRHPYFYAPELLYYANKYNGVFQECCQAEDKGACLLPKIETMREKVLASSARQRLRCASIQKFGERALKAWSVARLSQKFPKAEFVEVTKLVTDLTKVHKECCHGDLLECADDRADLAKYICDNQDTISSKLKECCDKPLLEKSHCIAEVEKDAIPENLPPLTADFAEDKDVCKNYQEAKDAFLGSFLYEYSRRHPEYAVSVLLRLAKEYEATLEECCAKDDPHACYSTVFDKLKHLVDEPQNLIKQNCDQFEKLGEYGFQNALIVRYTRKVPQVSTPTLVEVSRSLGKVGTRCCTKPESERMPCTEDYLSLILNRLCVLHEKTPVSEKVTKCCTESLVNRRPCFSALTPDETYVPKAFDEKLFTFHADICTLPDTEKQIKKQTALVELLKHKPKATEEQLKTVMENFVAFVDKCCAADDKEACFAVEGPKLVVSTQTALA

B1: Antibody 5 (antibody, human IgG1, lambda, V domains shown)
VH: QVQLVESGGGLVKPGGSLRLSCAASGFTFSSYVVHWVRQAPGKGLEWVGRIKRESSSYTTMYAAPVKGRFTISRDDSKNTLYLQMNSLKTEDTAVYYCARVERSKSGFDNWGQGTLVTVSS
VL: QSVLTQPPSVSGAPGQRVTISCTGSSSNIGAGYSVHWYQQLPGTAPKLLIYGQSERPSGVPDRFSGSKSGTSASLAITGLQAEDEADYYCQSWDSSQTLVVFGGGTKLTVLG
notes: also called Ab 5
B1 was tested. Which “selectivity window against BMP6, BMP reporter gene assay” value (shortened to “selectivity window against BMP6”) [1] did it give?
Its value is at least 500 fold.

And the “IC50, BMP reporter (BRE-luc) activity in Hep3B” value (“IC50, BMP reporter” for short) [2]?
The value was 400 pM.

What about the “selectivity window against BMP6” value [3] of the same binder?
The value was at least 500 fold.

And the “selectivity window against BMP6” value [4]?
Its value is at least 500 fold.

And the Kd [5]?
The Kd was 100 pM.

What about the “IC50(ug/ml) BMP6 reporter” value [6] of the same binder?
Its value is 0.06 µg/mL.

And the “IC50 (read off the curve), BMP reporter gene assay [panel Ab5]” value [7]?
The value was about 500 pM.

B2: Antibody 7 (antibody, human IgG1, lambda, V domains shown)
VH: B1 VH with K52R, R53L, S55T, S56H, S57G, T59A, T60A, M61E, P65S
VL: B1 VL
notes: also called Ab 7; Ab7
B2 was tested. Which selectivity window against BMP6, BMP reporter gene assay [8] did it give?
Its selectivity window against BMP6, BMP reporter gene assay is over 500 fold.

Does B2 bind [9]?
Result: binds

What about the “selectivity window against BMP6” value [1] of the same binder?
The value was at least 500 fold.

What about the “IC50, BMP reporter” value [2] of the same binder?
The value was 400 pM.

And the “selectivity window against BMP6” value [4]?
Its value is at least 500 fold.

What about the Kd [5] of the same binder?
Its Kd is 100 pM.

Does B2 bind [10]?
Result: no binding

Does B2 bind [11]?
Result: no binding

Does B2 bind [12]?
Result: no binding

And the “IC50(ug/ml) BMP6 reporter” value [6]?
The value was 0.07 µg/mL.

And the selectivity, affinity to human BMP6 over affinity to human BMP7 [13]?
The selectivity, affinity to human BMP6 over affinity to human BMP7 was over 500 fold.

What about the “IC50 (read off the curve), BMP reporter gene assay [panel Ab7]” value [7] of the same binder?
The value was about 500 pM.

B3: Antibody 6 (antibody, human IgG1, lambda, V domains shown)
VH: B1 VH with I51T, K52R, R53H, E54S, S55D, S56M, S57G, T59A, M61S
VL: B1 VL
notes: also called Ab 6
For B3, which “selectivity window against BMP6” value [1] is on record?
The value was at least 500 fold.

And the “IC50, BMP reporter” value [2]?
The value was 400 pM.

What about the “selectivity window against BMP6” value [3] of the same binder?
Its value is at least 500 fold.

What about the “selectivity window against BMP6” value [4] of the same binder?
Its value is at least 500 fold.

What about the Kd [5] of the same binder?
Its Kd is under 100 pM.

What about the “IC50(ug/ml) BMP6 reporter” value [6] of the same binder?
Its value is 0.08 µg/mL.

What about the “IC50 (read off the curve), BMP reporter gene assay [panel Ab6]” value [7] of the same binder?
The value was about 500 pM.
